The results in this text go back to US20080216185.

The test system of the data set is phiC31 integrase (Streptomyces phage phiC31?). Description: cell_activity. Particulars: for activity: integration of attB plasmid.

As to “phiC31 attB (pB2H1-DEST derived plasmids)”, where the note is “114 vs 80 colonies with/without integrase, BG01v hESC”, the activity (fold colonies over random integration) was 1.4.
Turning to pseudo attP 2q35, under “BG01v”, the activity stood at 2 clones.
Substance pseudo attP 6p11.2 (PRIM2A intron 5) registered an activity (BG01v) of 5 clones.
pseudo attP 9q31.2 had an activity (BG01v and SA002) of 3 clones.
For the substance pseudo attP 13q32.3 (CLYBL intron 2), the activity (of 51 integrase-mediated clones, BG01v and SA002) was determined as 17 clones.
“pseudo attP 17q23.3 (TLK2/MRC2 intergenic)” had an activity (BG01v) of 4 clones.
Take pseudo attP 21q21.1: the activity (BG01v) amounted to 2 clones.
